{
  "source": "paper PMC10251306",
  "substrate": "O=P(O)(O)OC[C@H]1O[C@H](OP(=O)(O)O)[C@H](O)[C@@H](O)[C@@H]1O",
  "assay": "phosphatase activity, BioMol Green phosphate assay",
  "assay_type": "biochemical, Homo sapiens",
  "details": "without IMP, 100 mM Hepes pH 7.2, 2 mM MgCl2, 2 mM β-mercaptoethanol",
  "data": [
    {"protein": "PMM1 (α-PMM1) (Homo sapiens) (protein) MAVTAQAARRKERVLCLFDVDGTLTPARQKIDPEVAAFLQKLRSRVQIGVVGGSDYCKIAEQLGDGDEVIEKFDYVFAENGTVQYKHGRLLSKQTIQNHLGEELLQDLINFCLSYMALLRLPKKRGTFIEFRNGMLNISPIGRSCTLEERIEFSELDKKEKIREKFVEALKTEFAGKGLRFSRGGMISFDVFPEGWDKRYCLDSLDQDSFDTIHFFGNETSPGGNDFEIFADPRTVGHSVVSPQDTVQRCREIFFPETAHEA", "values": [
      {"measurement": "Km", "result": "18 ± 3.4", "unit": "µM"},
      {"measurement": "kcat", "result": "0.018 ± 0.0012", "unit": "s⁻¹"},
      {"measurement": "kcat/Km", "result": 1000, "unit": "M⁻¹ s⁻¹"}
    ]}
  ]
}
